# Results as given in PMC2806667 (Molecular microbiology, 2009).
# T1: GST-VID (full length) (Bacillus subtilis, UniProt P37963 1-575)
# T1 sequence (looked up): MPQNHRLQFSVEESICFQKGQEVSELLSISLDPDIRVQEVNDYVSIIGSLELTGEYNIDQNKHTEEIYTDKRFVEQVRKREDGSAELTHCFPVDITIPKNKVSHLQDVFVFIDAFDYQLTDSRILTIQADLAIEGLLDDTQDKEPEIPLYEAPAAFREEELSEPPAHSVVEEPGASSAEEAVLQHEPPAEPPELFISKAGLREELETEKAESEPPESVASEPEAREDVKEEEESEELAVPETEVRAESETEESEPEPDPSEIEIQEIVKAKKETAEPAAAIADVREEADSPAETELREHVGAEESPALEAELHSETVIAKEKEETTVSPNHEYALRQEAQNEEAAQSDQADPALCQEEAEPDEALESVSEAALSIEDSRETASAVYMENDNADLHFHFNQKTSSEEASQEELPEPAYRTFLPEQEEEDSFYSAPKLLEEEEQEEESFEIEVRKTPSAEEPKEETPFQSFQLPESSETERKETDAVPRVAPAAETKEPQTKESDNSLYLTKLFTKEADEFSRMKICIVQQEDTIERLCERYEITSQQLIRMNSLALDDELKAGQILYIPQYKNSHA
# T2: His6-VID full length (Bacillus subtilis, UniProt P37963 1-575)
# T2 sequence (looked up): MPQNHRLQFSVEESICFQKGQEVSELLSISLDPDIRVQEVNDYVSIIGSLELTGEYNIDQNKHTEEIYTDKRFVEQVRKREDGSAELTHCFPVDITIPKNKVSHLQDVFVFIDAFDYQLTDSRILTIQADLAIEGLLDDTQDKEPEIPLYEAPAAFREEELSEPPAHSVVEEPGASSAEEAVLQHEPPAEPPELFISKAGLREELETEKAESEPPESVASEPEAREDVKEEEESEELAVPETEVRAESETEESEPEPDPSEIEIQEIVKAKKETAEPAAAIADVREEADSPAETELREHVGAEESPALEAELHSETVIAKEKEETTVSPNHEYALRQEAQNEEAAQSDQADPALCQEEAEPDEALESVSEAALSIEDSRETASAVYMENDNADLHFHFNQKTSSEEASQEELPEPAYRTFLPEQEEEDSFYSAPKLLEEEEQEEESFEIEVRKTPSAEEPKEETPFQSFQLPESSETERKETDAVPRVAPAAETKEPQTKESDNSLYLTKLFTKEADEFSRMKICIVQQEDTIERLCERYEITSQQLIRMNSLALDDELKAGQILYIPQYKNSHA
# B1: His6-IVA (SpoIVA) (natural protein, Bacillus subtilis, UniProt P35149 1-492, looked up)
# chain: MEKVDIFKDIAERTGGDIYLGVVGAVRTGKSTFIKKFMELVVLPNISNEADRARAQDELPQSAAGKTIMTTEPKFVPNQAMSVHVSDGLDVNIRLVDCVGYTVPGAKGYEDENGPRMINTPWYEEPIPFHEAAEIGTRKVIQEHSTIGVVITTDGTIGDIARSDYIEAEERVIEELKEVGKPFIMVINSVRPYHPETEAMRQDLSEKYDIPVLAMSVESMRESDVLSVLREALYEFPVLEVNVNLPSWVMVLKENHWLRESYQESVKETVKDIKRLRDVDRVVGQFSEFEFIESAGLAGIELGQGVAEIDLYAPDHLYDQILKEVVGVEIRGRDHLLELMQDFAHAKTEYDQVSDALKMVKQTGYGIAAPALADMSLDEPEIIRQGSRFGVRLKAVAPSIHMIKVDVESEFAPIIGTEKQSEELVRYLMQDFEDDPLSIWNSDIFGRSLSSIVREGIQAKLSLMPENARYKLKETLERIINEGSGGLIAIIL
# Tests used:
# His6-IVA (SpoIVA) [1] = biological target: B1; assay: pull-down
# His6-IVA (SpoIVA) [2] = biological target: B1; assay: far-Western, overlay or dot blot
# GST-VID (full length) = biological target: T1, GST-VID (full length); assay: pull-down
# His6-VID full length = biological target: T2, His6-VID full length; assay: far-Western, overlay or dot blot
binder,measurement,setting,value
"GST-VID L201-A575 fragment (domain or fragment, Bacillus subtilis, UniProt P37963 201-575, looked up) LREELETEKAESEPPESVASEPEAREDVKEEEESEELAVPETEVRAESETEESEPEPDPSEIEIQEIVKAKKETAEPAAAIADVREEADSPAETELREHVGAEESPALEAELHSETVIAKEKEETTVSPNHEYALRQEAQNEEAAQSDQADPALCQEEAEPDEALESVSEAALSIEDSRETASAVYMENDNADLHFHFNQKTSSEEASQEELPEPAYRTFLPEQEEEDSFYSAPKLLEEEEQEEESFEIEVRKTPSAEEPKEETPFQSFQLPESSETERKETDAVPRVAPAAETKEPQTKESDNSLYLTKLFTKEADEFSRMKICIVQQEDTIERLCERYEITSQQLIRMNSLALDDELKAGQILYIPQYKNSHA",binding result,His6-IVA (SpoIVA) [1],binds
"His6-VID(121-521) (domain or fragment, Bacillus subtilis, UniProt P37963 121-521, looked up) DSRILTIQADLAIEGLLDDTQDKEPEIPLYEAPAAFREEELSEPPAHSVVEEPGASSAEEAVLQHEPPAEPPELFISKAGLREELETEKAESEPPESVASEPEAREDVKEEEESEELAVPETEVRAESETEESEPEPDPSEIEIQEIVKAKKETAEPAAAIADVREEADSPAETELREHVGAEESPALEAELHSETVIAKEKEETTVSPNHEYALRQEAQNEEAAQSDQADPALCQEEAEPDEALESVSEAALSIEDSRETASAVYMENDNADLHFHFNQKTSSEEASQEELPEPAYRTFLPEQEEEDSFYSAPKLLEEEEQEEESFEIEVRKTPSAEEPKEETPFQSFQLPESSETERKETDAVPRVAPAAETKEPQTKESDNSLYLTKLFTKEADEFSR",binding result,His6-IVA (SpoIVA) [2],binds
"His6-VID(121-575) (domain or fragment, Bacillus subtilis, UniProt P37963 121-575, looked up) DSRILTIQADLAIEGLLDDTQDKEPEIPLYEAPAAFREEELSEPPAHSVVEEPGASSAEEAVLQHEPPAEPPELFISKAGLREELETEKAESEPPESVASEPEAREDVKEEEESEELAVPETEVRAESETEESEPEPDPSEIEIQEIVKAKKETAEPAAAIADVREEADSPAETELREHVGAEESPALEAELHSETVIAKEKEETTVSPNHEYALRQEAQNEEAAQSDQADPALCQEEAEPDEALESVSEAALSIEDSRETASAVYMENDNADLHFHFNQKTSSEEASQEELPEPAYRTFLPEQEEEDSFYSAPKLLEEEEQEEESFEIEVRKTPSAEEPKEETPFQSFQLPESSETERKETDAVPRVAPAAETKEPQTKESDNSLYLTKLFTKEADEFSRMKICIVQQEDTIERLCERYEITSQQLIRMNSLALDDELKAGQILYIPQYKNSHA",binding result,His6-IVA (SpoIVA) [2],binds
B1,binding result,GST-VID (full length),binds
same,binding result,His6-VID full length,binds
